Consider one molecule from patent publication US7339039B2, “Nucleic acids encoding receptor recognition factors, and methods of use thereof” (The Rockfeller University, priority 1992, dated 2008).

The subject of the series is Stat84 and Stat91L homodimers. The series can be described thus: Dissociation-reassociation analysis (gel mobility shift with GAS probe). As to conditions: GST fusion protein 0.5 to 5 μM. Type of series: biochemical, human. The method, then: Gel Mobility Shift Assays. Gel mobility shift assays were carried out as described (34). An oligonucleotide corresponding to the GAS element from the human FcγRI receptor gene (Pearse et al. 1993) was synthesized and used for gel mobility shift assays. The oligonucleotide has the following sequence: 5′[…]3′ (SEQ. ID NO:17).
Dissociation-reassociation Analysis. Extracts were incubated with various concentrations of peptides or fusion proteins, and ^32P-labeled GAS oligonucleotide probe in gel shift buffer was then added to promote the formation of protein-DNA complex followed by mobility shift analysis.
Dimerization of Stat91 Involves Phosphoryrosyl Peptide and SH2 Interactions. Based on the results described above, we devised a dissociation-reassociation assay in the absence of guanidium hydrochloride to explore the possible nature of interactions involved in dimer formation (FIG. 20). When the short and the long forms of a homodimer are mixed with a dissociating agent (e.g., a peptide containing the putative dimerization domain), the subunits of the dimer should dissociate (in a concentration dependent fashion) due to the interaction of the agent with the dimerization domain(s) of the protein. […] At high concentration of the dissociating agent, subunits of the dimer may not be able to re-form and no DNA-protein complexes would be detected (FIG. 20).

Stat84 and Stat91L homodimers, sequence (P42224 2-712 limits assumed): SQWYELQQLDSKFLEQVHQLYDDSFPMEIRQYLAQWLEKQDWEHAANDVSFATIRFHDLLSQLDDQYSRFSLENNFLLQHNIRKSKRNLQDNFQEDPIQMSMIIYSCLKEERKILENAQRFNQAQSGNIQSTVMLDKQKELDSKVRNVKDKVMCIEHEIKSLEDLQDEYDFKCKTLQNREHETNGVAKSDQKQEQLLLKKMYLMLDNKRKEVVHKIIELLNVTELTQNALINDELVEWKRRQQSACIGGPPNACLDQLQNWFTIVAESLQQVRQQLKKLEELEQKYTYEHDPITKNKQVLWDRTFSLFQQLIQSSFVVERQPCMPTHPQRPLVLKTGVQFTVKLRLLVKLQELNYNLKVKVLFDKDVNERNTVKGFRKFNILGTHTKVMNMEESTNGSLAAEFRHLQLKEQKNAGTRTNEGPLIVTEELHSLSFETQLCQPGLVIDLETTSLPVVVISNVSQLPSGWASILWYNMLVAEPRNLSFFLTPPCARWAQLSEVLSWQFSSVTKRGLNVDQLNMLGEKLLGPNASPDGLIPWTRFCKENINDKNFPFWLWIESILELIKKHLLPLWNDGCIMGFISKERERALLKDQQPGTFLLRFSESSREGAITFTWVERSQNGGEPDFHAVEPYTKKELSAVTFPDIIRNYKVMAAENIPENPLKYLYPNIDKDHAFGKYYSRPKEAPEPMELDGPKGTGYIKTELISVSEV

B1: GST-91SH2: GST fusion protein encoding amino acids 573 to 672 of Stat91 (protein)
chain: WNDGCIMGFISKERERALLKDQQPGTFLLRFSESSREGAITFTWVERSQNGGEPDFHAVEPYTKKELSAVTFPDIIRNYKVMAAENIPENPLKYLYPNID
modifications: left off: a dimerising Fc or GST
notes: GST fusion protein encoding amino acids 573 to 672 of Stat91
For B1, the “formation of heterodimer / exchange of subunits between Stat84 and Stat91L homodimers” value was “promoted the formation of a heterodimer”.
